The numbers were not newly measured in article PMC11316025, which cites them from elsewhere.

As usually defined, the Kd is the constant that tells how readily two partners part at equilibrium.

The series concerns the target KRAS (Homo sapiens) (UniProt P01116).

RASSF5, sequence (Q8WWW0 whole entry): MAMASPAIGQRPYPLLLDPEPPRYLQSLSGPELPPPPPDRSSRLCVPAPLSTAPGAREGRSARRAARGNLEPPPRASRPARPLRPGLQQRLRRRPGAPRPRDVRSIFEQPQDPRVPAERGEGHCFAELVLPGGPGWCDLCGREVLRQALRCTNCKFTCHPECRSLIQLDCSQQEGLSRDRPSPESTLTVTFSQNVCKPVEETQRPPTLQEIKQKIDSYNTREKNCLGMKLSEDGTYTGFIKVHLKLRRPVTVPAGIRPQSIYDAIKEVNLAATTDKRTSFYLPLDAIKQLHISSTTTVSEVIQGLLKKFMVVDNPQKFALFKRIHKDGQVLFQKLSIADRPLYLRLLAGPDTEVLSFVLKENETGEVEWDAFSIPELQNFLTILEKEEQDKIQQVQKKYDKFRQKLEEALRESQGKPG

Regarding RASSF5 (from UniProt Q8WWW0), the Kd was 1.7 µM.
